“And” between values parts separate entries of the source, which are not always exact repeats. Equal values may be shown once.
B1: recombinant human IL-20 expressed in CHO cells (purified protein or conditioned culture supernatant) (ligand)
chain: RSPKSKRKGQGRPGPLAPGPHQVPLDLVSRMKPYARMEEYERNIEEMVAQLRNSSELAQRKCEVNLQLWMSNKRSLSPWGYSINHDPSRIPVDLPEARCLCLGCVNPFTMQEDRSMVSVPVFSQVPVRRRLCPPPPRTGPCRQRAVMETIAVGCTCIF
notes: The complete ORF was expressed in CHO cells and the protein was secreted; The preparation is heterogeneous; Residues 23-180 is the longest species observed; GenBank AF212311 is printed; also called hIL-20; huIL-20

Assays:
[1] = biological target: IL-17 receptor (receptor of the first BIACORE screen of Example 8; construct not stated) (Homo sapiens (Human)) (UniProt Q96F46); assay: BIACORE SPR; IL-17 at 25 ug/mL
[2] = biological target: IL-17 receptor (receptor of the first BIACORE screen of Example 8; construct not stated) (Homo sapiens (Human)) (UniProt Q96F46); assay: BIACORE SPR; conditioned CHO culture supernatant, IL-20 concentration estimated at ~25 ug/mL
[3] = biological target: T1, IL-17 receptor (Met-1 through Asp-315)-Fc (human, UniProt Q96F46 33-315); assay: BIACORE SPR (summary of Example 8)
T1 construct: range 1-315; also called IL17R-Fc; huIL-17R extracellular domain-Fc; not shown: human Fc domain (heavy chain constant region of IgG1)
Experimental: (§1) Binding Analyses—IL-20 protein was dialyzed against 10 mM sodium acetate buffer, pH 5 and a BIACORE™ flow cell was prepared for each receptor at densities of 7900 and 9600 RU for IL-17R and IL17RLP, respectively. Various concentrations of purified IL-20 and IL-17 (R&D Systems, Minneapolis, Minn.) in 50 microliters herpes-buffered saline (HBS) buffer were examined for receptor binding at a flow rate of 15 microliters per minute. After injection of sample the flow cell was equilibrated with HBS. Flow cells were regenerated using two 40 sec pulses of 10 mM HCl.

[4] = biological target: T2, IL17RLP (Met-(-19) through Gly-270 of SEQ ID NO:2)-Fc fusion (human, UniProt Q9NRM6 18-289); assay: BIACORE SPR (summary of Example 8)
T2 construct: also called IL17RLP-Fc; soluble IL17RLP-Fc fusion protein; not shown: human Fc domain (heavy chain constant region of IgG1)
T2 sequence: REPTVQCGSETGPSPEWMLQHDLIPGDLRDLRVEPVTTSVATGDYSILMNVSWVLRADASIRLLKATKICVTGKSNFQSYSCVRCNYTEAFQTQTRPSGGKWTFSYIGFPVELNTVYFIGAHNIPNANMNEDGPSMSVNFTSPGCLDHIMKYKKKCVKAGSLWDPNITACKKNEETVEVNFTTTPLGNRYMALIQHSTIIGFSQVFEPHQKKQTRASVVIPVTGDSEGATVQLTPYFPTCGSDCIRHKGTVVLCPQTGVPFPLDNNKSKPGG
Experimental: as §1

T1 sequence (Q96F46 33-315 limits assumed): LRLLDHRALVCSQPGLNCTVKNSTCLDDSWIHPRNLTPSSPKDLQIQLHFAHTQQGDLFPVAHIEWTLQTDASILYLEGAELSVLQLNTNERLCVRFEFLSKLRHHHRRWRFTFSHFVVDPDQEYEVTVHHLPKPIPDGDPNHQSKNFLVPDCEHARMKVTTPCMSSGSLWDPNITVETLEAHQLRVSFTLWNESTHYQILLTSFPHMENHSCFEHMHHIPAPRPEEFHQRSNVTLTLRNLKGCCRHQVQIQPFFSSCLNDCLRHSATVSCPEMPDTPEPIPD

Molecule	SPR binding response (RU) [1]	SPR binding response (RU) [2]	binding result [3]	binding result [4]
Recombinant human IL-17 (R&D Systems) (from UniProt Q16552 20-155) (ligand)	60 RU			
B1		115 RU and 65 RU	binds	binds
